This note sets out measurements from patent US20210147574A1 (UNIVERSIT DEGLI STUDI DI FIRENZE, published 2021).

The target in assay [1] is T1, hERG1 (human, UniProt Q12809 1-1159).
T1 construct: whole, on cells; also called human ether-a-go-go-related gene 1 potassium channel; hERG1 antigen
The experiment in a line: immunofluorescence on fixed and live HEK293-hERG1 cells, intensity by ImageJ. The protocol:
Then an immunofluorescence analysis was performed using scFv-hERG1-G3 and scFv-hERG1-D8Cys on fixed cells, to determine the immunoreactivity of the two antibodies. […] Data analysis obtained using ImageJ Software is reported in the graphs reported in panel C.
Cells were seeded O/N on glass coverslips and then washed once with PBS and fixed with 4% paraformaldeide for 20 min at room temperature. Blocking was performed with 10% BSA for 2 h at room temperature. Antibody incubation was performed using scFv-hERG1-G3, scFv-hERG1-D8Cys, diluted 1:20 in blocking solution and incubated for 2 and half hours, followed by anti-His (1:250; Abcam) O/N incubation in blocking solution. The following day, cells were washed three times with PBS and incubated with anti-mouse Alexa488 antibody (Invitrogen) for 1 h. Whereas, scFv-hERG1-G3-Alexa488 and scFv-hERG1-D8Cys-Alexa488, diluted 1:20 in blocking solution, were incubated O/N at 4° C.
Cells were grown O/N on 60 mm plates (Sarstedt) using an agarose (15 g/L) ring in order to isolate cells and minimize the volumes of reagents needed for incubations. Cells were incubated with scFv-hERG1-G3-Alexa488 and scFv-hERG1-D8Cys-Alexa488 diluted 1:20 in complete culture medium in a 37° C. incubator with 5% C02 for 4 h. Rivelation was performed using Hoechst, as previously described. Cells were visualized on a inverted light microscopy (Nikon, Eclipse TE300).

In assay [2] the target is T2, S5-Pore peptide.
T2 construct: Peptide of the S5-pore extracellular portion of hERG1; also called S5PORO peptide; peptide S5PORO
T2 peptide: EQPHMDSRIGWLHN
The experiment in a line: binding to immobilized antigen (method section: ELISA on plates coated with S5-Pore peptide). The procedure: To evaluate if the two engineered antibodies, scFv-hERG1-G3 and scFv-hERG1-D8Cys, have still the ability to bind the antigen and afterwards to investigate the different affinity of the two antibodies ELISA assays were performed using plates coated with S5-Pore peptide (sequence: […]), towards which the antibody is directed. This peptide is the same we used to screen anti-hERG1 A7 antibody.

Assay [3] deals with T1, hERG1. Kind of assay: cell-based or functional assay.

T1 sequence (Q12809 whole entry): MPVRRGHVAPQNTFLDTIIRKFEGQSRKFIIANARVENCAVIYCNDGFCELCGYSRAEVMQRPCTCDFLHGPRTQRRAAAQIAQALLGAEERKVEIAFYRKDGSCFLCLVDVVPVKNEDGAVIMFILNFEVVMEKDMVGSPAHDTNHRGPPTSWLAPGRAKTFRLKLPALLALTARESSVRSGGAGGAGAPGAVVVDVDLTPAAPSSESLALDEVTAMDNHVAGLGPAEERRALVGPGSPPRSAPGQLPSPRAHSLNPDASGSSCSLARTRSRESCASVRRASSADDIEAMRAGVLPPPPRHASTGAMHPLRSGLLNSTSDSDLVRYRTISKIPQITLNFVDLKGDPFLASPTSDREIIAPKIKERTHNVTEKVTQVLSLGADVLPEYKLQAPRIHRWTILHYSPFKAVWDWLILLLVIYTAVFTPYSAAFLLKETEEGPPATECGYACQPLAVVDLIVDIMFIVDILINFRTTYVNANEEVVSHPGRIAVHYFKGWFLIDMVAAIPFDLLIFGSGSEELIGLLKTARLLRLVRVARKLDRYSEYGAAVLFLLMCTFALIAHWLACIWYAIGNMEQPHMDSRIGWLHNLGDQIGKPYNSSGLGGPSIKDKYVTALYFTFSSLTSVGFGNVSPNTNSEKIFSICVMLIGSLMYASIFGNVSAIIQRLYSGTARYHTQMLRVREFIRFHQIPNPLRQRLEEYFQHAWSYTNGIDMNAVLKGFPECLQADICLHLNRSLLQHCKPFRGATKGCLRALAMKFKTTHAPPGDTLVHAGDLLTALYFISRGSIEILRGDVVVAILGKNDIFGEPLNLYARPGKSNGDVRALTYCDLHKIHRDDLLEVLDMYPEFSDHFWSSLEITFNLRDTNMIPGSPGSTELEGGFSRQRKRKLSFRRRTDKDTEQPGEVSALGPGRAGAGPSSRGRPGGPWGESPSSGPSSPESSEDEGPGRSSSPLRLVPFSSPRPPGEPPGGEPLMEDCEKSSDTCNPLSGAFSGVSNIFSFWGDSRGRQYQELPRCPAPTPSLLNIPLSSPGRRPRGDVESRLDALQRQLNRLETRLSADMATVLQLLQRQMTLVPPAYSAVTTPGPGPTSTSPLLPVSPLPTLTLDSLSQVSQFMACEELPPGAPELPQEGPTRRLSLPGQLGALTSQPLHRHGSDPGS

B1: scFv-hERG1-D8Cys (scFv)
scFv: EVQLQQSGPELVKPGASVKISCKTSGYTFTEYTVHWVKQSHGKSLEWIGGINPNGGTTYNQKFKGKATLTIDKSSSSAFMELRSLTSEDSAVYYCATGWGPDYWGQGTTLTVSSAKTTPPSVYPLAPGSSGGGGSGGGGSGGSALDIVLTQSPLTLSVNIGQPASISCKSSQSLLYTNGKTYFNWLLQRPGQSPKRLIYLVSKLDSGVPDRFTGSGSGTDFTLKISRVEAEDLGVYYCAQGTHFPWTFGGGTKLEIKRADAAPTVSAAAEQKLISEEDLNGAA
notes: Clone D8, expressed in Pichia pastoris from pPIC9K with a 6xHis tag; Also tested after conjugation with Alexa 488; also called scFv-hERG1-Cys; anti-hERG1-Cys scFv
For the molecule B1, the binding result in assay [1] and in assay [2] was “binds” in each case.

B2: scDb-hERG1-Cys-β1 (bispecific antibody)
chain: EAECADEVQLQQSGPELVKPGASVKISCKTSGYTFTEYTVHWVKQSHGKSLEWIGGINPNGGTTYNQKFKGKATLTIDKSSSSAFMELRSLTSEDSAVYYCATGWGPDYWGQGTTLTVSSAKTTPPSVYPLAPGSSDIVMTQTPTTMAASPGDKITITCSVSSIISSNYLHWYSQKPGFSPKLLIYRTSNLASGVPPRFSGSGSGTSYSLTIGTMEAEDVATYYCQQGSDIPLTFGDGTKLDLKRADAAPTVSGGGGSGGGGSGGGGSGGGGSEVKVVESGGGLVKPGGSLKLSCAASGFTFSSYTMSWVRQTPEKRLEWVATISSGGSYTYYPDSVKGRFTISRDKAKNTLYLQMGSLKSEDTAMYYCTRIGYDEDYAMDHWGQGTSVTVSSAKTTPPSVYSALDIVLTQSPLTLSVNIGQPASISCKSSQSLLYTNGKTYFNWLLQRPGQSPKRLIYLVSKLDSGVPDRFTGSGSGTDFTLKISRVEAEDLGVYYCAQGTHFPWTFGGGTKLEIKRADAAPTVSAAAEQKLISEEDLNGAPRHHHHHHHH
Consider B2, for which, in assay [3], the “IC50, cell viability of MDA-MB 231 cells” value worked out at 42 µg/mL and the “IC50, cell viability of PANC-1 cells” value is 24 µg/mL.
